Assay results published in article PMC6943233, “Disorder‐to‐order transition in PE–PPE proteins of Mycobacterium tuberculosis augments the pro‐pathogen immune response” (FEBS Open Bio, 2019).

Target: T1, PPE68 (Mycobacterium tuberculosis, UniProt P9WHW9 1-368)
T1 construct: also called recombinant PPE68
T1 sequence: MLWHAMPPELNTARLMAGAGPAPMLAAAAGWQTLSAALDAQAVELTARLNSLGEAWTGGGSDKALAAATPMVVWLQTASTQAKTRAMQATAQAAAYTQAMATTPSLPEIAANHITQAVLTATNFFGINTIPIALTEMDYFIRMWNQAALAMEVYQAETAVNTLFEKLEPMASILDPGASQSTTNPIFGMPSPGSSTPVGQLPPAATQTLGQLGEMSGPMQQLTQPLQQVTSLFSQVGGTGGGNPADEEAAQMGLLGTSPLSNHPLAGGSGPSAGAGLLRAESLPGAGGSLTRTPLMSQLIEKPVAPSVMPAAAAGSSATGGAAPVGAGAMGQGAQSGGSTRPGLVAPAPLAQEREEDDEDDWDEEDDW
Assay: other fluorescence titration; intrinsic fluorescence of the PPE protein (10 μg) with the tryptophan-free PE protein added (10 and 30 μg); excitation 280 nm, emission 300-340 nm, 25 ± 0.1 °C
Details: both partners purified

B1: PE35 (natural protein)
chain: MEKMSHDPIAADIGTQVSDNALHGVTAGSTALTSVTGLVPAGADEVSAQAATAFTSEGIQLLASNASAQDQLHRAGEAVQDVARTYSQIDDGAAGVFAE
notes: also called recombinant PE35
binding result: binds
